# According to doi:10.1101/2024.10.04.616518 (2024):
# B1: ixochymostatin (natural protein)
# chain: ANTGIEWPPKPQKCAEGETWKECVGSSCAELTCEHPEPSLGCTYDCNYGCYCAPDFFRNANKECVKKDKCP
# Tests used:
# [1] = biological target: bovine pancreatic chymotrypsin (bovine); assay: apparent Ki, intercept of IC50 vs chymotrypsin concentration
# [2] = biological target: bovine pancreatic chymotrypsin (bovine); assay: apparent Ki, Morrison fit, 25 nM chymotrypsin
binder,measurement,setting,value
B1,Ki,[1],16.5 nM
same,Ki,[2],0.99 nM
